This test deals with transferrin receptor on the membrane surface of Vero E6 cells (African green monkey). Briefly: cell-based or functional assay.

As for “transferrin (Sigma, catalog number T4382) (from UniProt P02787 20-698) (ligand)”, the EC50 of inhibition of SARS-CoV-2 infection of Vero E6 cells, calculated by CPE is 125 nM.

(Values after US20230060040A1, “USE OF TRANSFERRIN, TRANSFERRIN RECEPTOR AND ANTIBODY THEREOF IN PREPARATION OF ANTI-SARS-CoV-2 DRUG” (KUNMING INSTITUTE OF ZOOLOGY, CHINESE ACADEMY OF SCIENCES, priority 2020, published 2023).)
